Data reported in patent US7026443.
Where two headings read alike, the source gives them in different places.

What was measured:
HLA-A*0301 (human) [1] = target: HLA-A*0301 (human)
HLA-A*0301 (human) [2] = assay: competition with 125I-labelled standard peptide for purified HLA-A*0301, gel filtration
[3] = remark: other sources report otherwise

FAFRDLCIV (modifications not checked) [HPV16 E6 52 …]
binding affinity ratio (IC50 of standard peptide / IC50 of test peptide) (HLA-A*0201 (human)): 0.051

ILECVYCKQQL (modifications not checked) [HPV16 E6 34 …]
binding affinity ratio (IC50 of standard peptide / IC50 of test peptide) (HLA-A*0201 (human)): 0.0004

QLCTELQTT (modifications not checked) [HPV16 E6 peptide … (position 21, 9 amino acids)]
relative binding ratio (IC50 of standard peptide / IC50 of test peptide) (HLA-A*0201 (human); [3]): 0.0001

QLCTELQTTI (modifications not checked) [HPV16 E6 peptide … (position 21, 10 amino acids)]
relative binding ratio (IC50 of standard peptide / IC50 of test peptide) (HLA-A*0201 (human)): 0.0012

TLEQQYNKPL (modifications not checked) [HPV16 E6 peptide … (position 94, 10 amino acids)]
relative binding ratio (IC50 of standard peptide / IC50 of test peptide) (HLA-A*0201 (human)): 0.0001

DIRTLEDLL (modifications not checked) [HPV16 E7 peptide … (position 75, 9 amino acids)]
relative binding ratio (IC50 of standard peptide / IC50 of test peptide) (HLA-A*0201 (human)): 0.0003

GTLGIVCPI (modifications not checked) [HPV16 E7 peptide … (position 85, 9 amino acids)]
relative binding ratio (IC50 of standard peptide / IC50 of test peptide) (HLA-A*0201 (human)): 0.021

ALDGNPISI (modifications not checked) [HPV18 E1 546 peptide …]
relative binding ratio (IC50 of standard peptide / IC50 of test peptide) (ratio to standard peptide) (HLA-A*0201 (human)): 0.021

ALYWYRTGI (modifications not checked) [HPV18 E1 325 peptide …]
relative binding ratio (IC50 of standard peptide / IC50 of test peptide) (ratio to standard peptide) (HLA-A*0201 (human)): 0.0032

FILYAHIQCL (modifications not checked) [HPV18 E1 peptide … (position 265, 10 amino acids)]
binding affinity ratio (IC50 of the standard peptide / IC50 of the test peptide) (HLA-A*0201 (human)): 0.032

FLGALKSFL (modifications not checked) [HPV18 E1 peptide … (position 463, 9 amino acids)]
binding affinity ratio (IC50 of the standard peptide / IC50 of the test peptide) (HLA-A*0201 (human)): 0.045

FLRYQQIEFI (modifications not checked) [HPV18 E1 peptide … (position 452, 10 amino acids)]
binding affinity ratio (IC50 of the standard peptide / IC50 of the test peptide) (HLA-A*0201 (human)): 0.0025

FVNSTSHFWL (modifications not checked) [HPV18 E1 peptide … (position 508, 10 amino acids)]
binding affinity ratio (IC50 of the standard peptide / IC50 of the test peptide) (HLA-A*0201 (human)): 0.062

VMGDTPEWI (modifications not checked) [HPV18 E1 339 peptide … (SEQ ID NO: 3614)]
relative binding ratio (IC50 of standard peptide / IC50 of test peptide) (HLA-A*0201 (human)): 0.007

CVYCKTVL (modifications not checked) [HPV18 E6 32 CVYCKTVL]
binding affinity ratio (IC50 of the standard peptide / IC50 of the test peptide) (HLA-A*0201 (human)): 0.0002

CVYCKTVLEL (modifications not checked) [HPV18 E6 32 …]
binding affinity ratio (IC50 of the standard peptide / IC50 of the test peptide) (HLA-A*0201 (human)): 0.0001

EITCVYCKT (modifications not checked)
binding affinity ratio (IC50 of the standard peptide / IC50 of the test peptide) (HLA-A*0201 (human); [3]): 0.0001

EITCVYCKTV (modifications not checked)
binding affinity ratio (IC50 of the standard peptide / IC50 of the test peptide) (HLA-A*0201 (human)): 0.0002

ELTEVFEFA (modifications not checked) [HPV18 E6 peptide … (position 40)]
relative binding ratio (IC50 of standard peptide / IC50 of test peptide) (HLA-A*0201 (human); [3]): 0.0012

EVFEFAFKDL (modifications not checked) [HPV18 E6 peptide … (position 43)]
relative binding ratio (IC50 of standard peptide / IC50 of test peptide) (HLA-A*0201 (human)): 0.0009

FAFKDLFVV (modifications not checked) [HPV18 E6 peptide … (position 47)]
relative binding ratio (IC50 of standard peptide / IC50 of test peptide) (HLA-A*0201 (human)): 0.085

GLYNLLIRCL (modifications not checked) [HPV18 E6 peptide … (position 97)]
relative binding ratio (IC50 of standard peptide / IC50 of test peptide) (HLA-A*0201 (human)): 0.0036

KLPDLCTEL (modifications not checked) [HPV18 E6 peptide … (position 13)]
relative binding ratio (IC50 of standard peptide / IC50 of test peptide) (HLA-A*0201 (human); [3]): 0.0035

PLNPAEKLRHL (modifications not checked) [HPV18 E6 peptide … (position 111)]
relative binding ratio (IC50 of standard peptide / IC50 of test peptide) (HLA-A*0201 (human)): 0.0001

VVYRDSIPHA (modifications not checked) [HPV18 E6 peptide … (position 54)]
relative binding ratio (IC50 of standard peptide / IC50 of test peptide) (HLA-A*0201 (human)): 0.0003

DLLCHEQL (modifications not checked) [HPV18 E7 peptide DLLCHEQL (position 24)]
relative binding ratio (IC50 of standard peptide / IC50 of test peptide) (HLA-A*0201 (human)): 0.0001

PVDLLCHEQL (modifications not checked) [HPV18 E7 peptide … (position 22, 10 amino acids)]
relative binding ratio (IC50 of standard peptide / IC50 of test peptide) (ratio to standard peptide) (HLA-A*0201 (human)): 0.0001

QLFLNTLSFV (modifications not checked) [HPV18 E7 peptide … (position 88, 10 amino acids as printed)]
relative binding ratio (IC50 of standard peptide / IC50 of test peptide) (ratio to standard peptide) (HLA-A*0201 (human)): 0.11

TLSFVCPWCA (modifications not checked) [HPV18 E7 peptide … (position 93, 10 amino acids)]
relative binding ratio (IC50 of standard peptide / IC50 of test peptide) (ratio to standard peptide) (HLA-A*0201 (human)): 0.0027

FLKSNSQAKI (modifications not checked) [HPV31 E1 372 peptide … (SEQ ID NO: 4704)]
relative binding ratio (IC50 of standard peptide / IC50 of test peptide) (ratio to standard peptide) (HLA-A*0201 (human)): 0.0011

KLRSTAAAL (modifications not checked) [HPV31 E1 peptide … (position 291, 9 amino acids)]
relative binding ratio (IC50 of standard peptide / IC50 of test peptide) (ratio to standard peptide) (HLA-A*0201 (human)): 0.0003

FLKSNSQAKI (modifications not checked) [HPV33 E1 peptide … (position 385, 10 amino acids)]
relative binding ratio (IC50 of standard peptide / IC50 of test peptide) (ratio to standard peptide) (HLA-A*0201 (human)): 0.0011

KLPDLCTEL (modifications not checked) [HPV45 E6 peptide … (position 13, 9 amino acids)]
relative binding ratio (IC50 of standard peptide / IC50 of test peptide) (HLA-A*0201 (human); [3]): 0.0035

TLSFVCPWCA (modifications not checked) [HPV45 E7 peptide … (position 94, 10 amino acids)]
relative binding ratio (IC50 of standard peptide / IC50 of test peptide) (ratio to standard peptide) (HLA-A*0201 (human)): 0.0027

ALDGNLVSM (modifications not checked) [HPV16 E1 … (position 539)]
relative binding ratio (IC50 of standard peptide / IC50 of test peptide) (HLA-A*0201 (human)): 0.027

ALKRFLQGI (modifications not checked) [HPV16 E1 … (position 459)]
relative binding ratio (IC50 of standard peptide / IC50 of test peptide) (HLA-A*0201 (human)): 0.0062

ALYWYKTGI (modifications not checked) [HPV16 E1 … (position 318)]
relative binding ratio (IC50 of standard peptide / IC50 of test peptide) (HLA-A*0201 (human)): 0.0019

CLYLHIQSL (modifications not checked)
relative binding ratio (IC50 of standard peptide / IC50 of test peptide) (HLA-A*0201 (human)): 0.076

CLYLHIQSLA (modifications not checked)
relative binding ratio (IC50 of standard peptide / IC50 of test peptide) (HLA-A*0201 (human)): 0.0032

ELSQMVQWA (modifications not checked) [HPV16 E1 356 peptide …]
relative binding ratio (IC50 of standard peptide / IC50 of test peptide) (HLA-A*0201 (human)): 0.0003

FLKSNSQAKI (modifications not checked) [HPV16 E1 392 peptide …]
relative binding ratio (IC50 of standard peptide / IC50 of test peptide) (HLA-A*0201 (human)): 0.0011

FVNSKSHFWL (modifications not checked) [HPV16 E1 501 peptide …]
relative binding ratio (IC50 of standard peptide / IC50 of test peptide) (HLA-A*0201 (human)): 0.0015

MMIEPPKLR (modifications not checked) [HPV16 E1 305 …]
binding affinity ratio (IC50 of standard peptide / IC50 of test peptide) (HLA-A*0301 (human) [1]): 0.001 | binding affinity ratio (IC50 of standard peptide / IC50 of test peptide) (ratio to standard peptide) (HLA-A*1101 (human)): 0.0086

MSFLTALKR (modifications not checked) [HPV16 E1 454 …]
binding affinity ratio (IC50 of standard peptide / IC50 of test peptide) (HLA-A*0301 (human) [1]): 0.087 | binding affinity ratio (IC50 of standard peptide / IC50 of test peptide) (ratio to standard peptide) (HLA-A*1101 (human)): 0.098

RLKAICIEK (modifications not checked) [HPV16 E1 109 …]
binding affinity ratio (IC50 of standard peptide / IC50 of test peptide) (HLA-A*0301 (human) [2]): 0.084

SLFGMSLMK (modifications not checked) [HPV16 E1 484 …]
binding affinity ratio (IC50 of standard peptide / IC50 of test peptide) (HLA-A*0301 (human) [2]): 0.72

SVICFVNSK (modifications not checked) [HPV16 E1 497 …]
binding affinity ratio (IC50 of standard peptide / IC50 of test peptide) (HLA-A*0301 (human) [2]): 0.0005

TAQEAKQHR (modifications not checked) [HPV16 E1 72 …]
binding affinity ratio (IC50 of standard peptide / IC50 of test peptide) (HLA-A*0301 (human) [2]): 0.0005

AFRDLCIVY (modifications not checked) [HPV16 E6 position 53 peptide …]
binding affinity ratio (IC50 of the standard peptide / IC50 of the test peptide) (HLA-A*0301 (human) [2]): 0.0052

AMFQDPQER (modifications not checked) [HPV16 E6 position 7 peptide …]
binding affinity ratio (IC50 of the standard peptide / IC50 of the test peptide) (HLA-A*0301 (human) [2]; [3]): 0.017

AVCDKCLK (modifications not checked) [HPV16 E6 position 68 peptide AVCDKCLK]
binding affinity ratio (IC50 of the standard peptide / IC50 of the test peptide) (HLA-A*0301 (human) [2]): 0.0053

AVCDKCLKF (modifications not checked)
binding affinity ratio (IC50 of the standard peptide / IC50 of the test peptide) (HLA-A*0301 (human) [2]): 0.0002

KLRSTAAAL (modifications not checked) [HPV16 E1 311 …]
relative binding ratio (IC50 of standard peptide / IC50 of test peptide) (HLA-A*0201 (human)): 0.0003

AVCDKCLKFY (modifications not checked)
binding affinity ratio (IC50 of the standard peptide / IC50 of the test peptide) (HLA-A*0301 (human) [2]): 0.0052

CCRSSRTRR (modifications not checked) [HPV16 E6 position 146 peptide …]
binding affinity ratio (IC50 of the standard peptide / IC50 of the test peptide) (HLA-A*0301 (human) [2]): 0.0003

LLQQYCLYL (modifications not checked) [HPV16 E1 254 …]
relative binding ratio (IC50 of standard peptide / IC50 of test peptide) (HLA-A*0201 (human)): 0.1

LMKFLQGSVI (modifications not checked) [HPV16 E1 490 …]
relative binding ratio (IC50 of standard peptide / IC50 of test peptide) (HLA-A*0201 (human)): 0.0003

QLKCPPLLI (modifications not checked) [HPV16 E1 556 …]
relative binding ratio (IC50 of standard peptide / IC50 of test peptide) (ratio to standard peptide) (HLA-A*0201 (human)): 0.0049

SLACSWGMV (modifications not checked)
relative binding ratio (IC50 of standard peptide / IC50 of test peptide) (ratio to standard peptide) (HLA-A*0201 (human)): 0.082

SLACSWGMVV (modifications not checked)
relative binding ratio (IC50 of standard peptide / IC50 of test peptide) (ratio to standard peptide) (HLA-A*0201 (human)): 0.13

SLMKFLQGSV (modifications not checked) [HPV16 E1 489 …]
relative binding ratio (IC50 of standard peptide / IC50 of test peptide) (ratio to standard peptide) (HLA-A*0201 (human)): 0.025

TLLQQYCLYL (modifications not checked) [HPV16 E1 253 …]
relative binding ratio (IC50 of standard peptide / IC50 of test peptide) (ratio to standard peptide) (HLA-A*0201 (human)): 0.65
